{"source": "patent US20150377889", "proteins": {"B1": {"name": "active c-Abl kinase (protein)", "chain": "PVNSLEKHSWYHGPVSRNAAEYLLSSGINGSFLVRESESSPGQRSISLRYEGRVYHYRINTASDGKLYVSSESRFNTLAELVHHHSTVADGLITTLHYPAPKRNKPTVYGVSPNYDKWEMERTDITMKHKLGGGQYGEVYEGVWKKYSLTVAVKTLKEDTMEVEEFLKEAAVMKEIKHPNLVQLLGVCTREPPFYIITEFMTYGNLLDYLRECNRQEVNAVVLLYMATQISSAMEYLEKKNFIHRDLAARNCLVGENHLVKVADFGLSRLMTGDTYTAHAGAKFPIKWTAPESLAYNKFSIKSDVWAFGVLLWEIATYGMSPYPGIDLSQVYELLEKDYRMERPEGCPEKVYELMRACWQWNPSDRPSFAEIHQAFETMFQESSISDEVEKELGKQGVRGAVSTLLQAPELPTKTRTSRRAAEHRDTTDVPEMPHS"}}, "target": "recombinant wild type full-length human galectin-3, His-tagged (unphosphorylated)", "sequence (chain, as listed by the source)": "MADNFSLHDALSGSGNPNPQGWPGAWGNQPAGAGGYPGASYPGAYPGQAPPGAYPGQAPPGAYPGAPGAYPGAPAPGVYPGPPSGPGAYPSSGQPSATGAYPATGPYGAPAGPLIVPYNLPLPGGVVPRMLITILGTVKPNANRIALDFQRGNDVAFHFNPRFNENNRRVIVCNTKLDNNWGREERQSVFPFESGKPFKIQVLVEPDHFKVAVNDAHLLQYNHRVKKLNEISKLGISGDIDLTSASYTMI"}
{"protein": "B1", "values": [{"measurement": "in vitro tyrosine phosphorylation of galectin-3 (c-Abl kinase assay, pTyr blot)", "value": "phosphorylating galectin-3 in vitro with active c-Abl"}]}
